This test has as its target EGFRvIII variant of EGFR, expressed on CT2AvIII cells (UniProt P00533). Briefly: cell-based or functional assay.

As to “third-generation EGFRvIII-targeting CAR (anti-EGFRvIII scFv clone 139 fused to CD8 hinge and TM, CD28, 4-1BB and CD3zeta), on transduced mouse T cells”, the percent survival of tumor cells, in vitro cytotoxicity against a 70:30 mixture of CT2A:CT2AvIII, 24 h co-culture was 75%.
